Experimental data: paper PMC6075780, “Interaction of lipoprotein QseG with sensor kinase QseE in the periplasm controls the phosphorylation state of the two-component system QseE/QseF in Escherichia coli” (PLoS Genetics, 2018)

T1: QseG-Strep (E. coli K-12, UniProt P0AD44 26-237, Cys26 predicted by the paper to be lipidated)
T1 sequence (looked up): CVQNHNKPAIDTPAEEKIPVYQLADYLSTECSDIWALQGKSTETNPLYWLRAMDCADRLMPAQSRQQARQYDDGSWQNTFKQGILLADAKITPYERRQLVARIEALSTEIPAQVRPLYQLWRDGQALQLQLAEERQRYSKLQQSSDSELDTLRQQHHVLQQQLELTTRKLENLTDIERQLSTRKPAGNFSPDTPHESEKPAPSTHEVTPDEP


Key:
T18-QseE (pYG246) = assay: BACTH assay (bacterial two-hybrid, β-galactosidase read-out), homodimerization; details: reporter strain BTH101; plasmids pYG246/pYG199_TM1; parent: est. 3600; read off a plot
QseG-Strep [1] = biological target: T1, QseG-Strep; assay: cell-based or functional assay
QseG-Strep [2] = biological target: T1, QseG-Strep; assay: pull-down; bait and prey from two compatible plasmids in E. coli Z970 (1 mM IPTG, 0.2% arabinose, 3 h); cleared lysates with MagStrep type3 XT beads 60 min at 4°C, washed 4× with buffer W; Western blot; details: partners not purified

fold decrease in glmY'-lacZ β-galactosidase activity of the ΔqseE strain Z970 complemented with plasmid-encoded QseE-S58N (pYG221-S58N), against wild-type QseE (pYG221) (QseG-Strep [1]) [fold]	fold reduction of co-purifying protein against wild-type QseE-3×FLAG (QseG-Strep [2]) [fold]	Molecule	response (T18-QseE (pYG246)) [Miller units]
–	–	T25-QseE (from UniProt P52101) F19L; L21H; I22R; L23P; L24P	1000
3	~3	QseE-S58N-3×FLAG (natural protein, E. coli K-12, UniProt P52101 1-475, looked up, Histidine kinase QseE of E. coli K-12 with the S58N exchange in the periplasmic loop; also called QseE-S58N variant; source: E. coli strain Z970, from plasmid pYG318-S58N, in lysate; not shown: 3×FLAG, C-terminal, kept) MKRWPVFPRSLRQLVMLAFLLILLPLLVLAWQAWQSLNALSDQAALVNRTTLIDARRNEAMTNAALEMERSYRQYCVLDDPTLAKVYQSQRKRYSEMLDAHAGVLPDDKLYQALRQDLHNLAQLQCNNSGPDAAAAARLEAFASANTEMVQATRTVVFSRGQQLQREIAERGQYFGWQSLVLFLVSLVMVLLFTRMIIGPVKNIERMINRLGEGRSLGNSVSFSGPSELRSVGQRILWLSERLSWLESQRHQFLRHLSHELKTPLASMREGTELLADQVVGPLTPEQKEVVSILDSSSRNLQKLIEQLLDYNRKQADSAVELENVELAPLVETVVSAHSLPARAKMMHTDVDLKATACLAEPMLLMSVLDNLYSNAVHYGAESGNICLRSSLHGARVYIDVINTGTPIPQEERAMIFEPFFQGSHQRKGAVKGSGLGLSIARDCIRRMQGELYLVDESGQDVCFRIELPSSKNTK	–
